Molecular target: T1, angiotensin-converting enzyme (ACE) from pig kidney (EC 3.4.15.1 (Sigma)) (pig) (UniProt F1RRW5)
T1 sequence (looked up): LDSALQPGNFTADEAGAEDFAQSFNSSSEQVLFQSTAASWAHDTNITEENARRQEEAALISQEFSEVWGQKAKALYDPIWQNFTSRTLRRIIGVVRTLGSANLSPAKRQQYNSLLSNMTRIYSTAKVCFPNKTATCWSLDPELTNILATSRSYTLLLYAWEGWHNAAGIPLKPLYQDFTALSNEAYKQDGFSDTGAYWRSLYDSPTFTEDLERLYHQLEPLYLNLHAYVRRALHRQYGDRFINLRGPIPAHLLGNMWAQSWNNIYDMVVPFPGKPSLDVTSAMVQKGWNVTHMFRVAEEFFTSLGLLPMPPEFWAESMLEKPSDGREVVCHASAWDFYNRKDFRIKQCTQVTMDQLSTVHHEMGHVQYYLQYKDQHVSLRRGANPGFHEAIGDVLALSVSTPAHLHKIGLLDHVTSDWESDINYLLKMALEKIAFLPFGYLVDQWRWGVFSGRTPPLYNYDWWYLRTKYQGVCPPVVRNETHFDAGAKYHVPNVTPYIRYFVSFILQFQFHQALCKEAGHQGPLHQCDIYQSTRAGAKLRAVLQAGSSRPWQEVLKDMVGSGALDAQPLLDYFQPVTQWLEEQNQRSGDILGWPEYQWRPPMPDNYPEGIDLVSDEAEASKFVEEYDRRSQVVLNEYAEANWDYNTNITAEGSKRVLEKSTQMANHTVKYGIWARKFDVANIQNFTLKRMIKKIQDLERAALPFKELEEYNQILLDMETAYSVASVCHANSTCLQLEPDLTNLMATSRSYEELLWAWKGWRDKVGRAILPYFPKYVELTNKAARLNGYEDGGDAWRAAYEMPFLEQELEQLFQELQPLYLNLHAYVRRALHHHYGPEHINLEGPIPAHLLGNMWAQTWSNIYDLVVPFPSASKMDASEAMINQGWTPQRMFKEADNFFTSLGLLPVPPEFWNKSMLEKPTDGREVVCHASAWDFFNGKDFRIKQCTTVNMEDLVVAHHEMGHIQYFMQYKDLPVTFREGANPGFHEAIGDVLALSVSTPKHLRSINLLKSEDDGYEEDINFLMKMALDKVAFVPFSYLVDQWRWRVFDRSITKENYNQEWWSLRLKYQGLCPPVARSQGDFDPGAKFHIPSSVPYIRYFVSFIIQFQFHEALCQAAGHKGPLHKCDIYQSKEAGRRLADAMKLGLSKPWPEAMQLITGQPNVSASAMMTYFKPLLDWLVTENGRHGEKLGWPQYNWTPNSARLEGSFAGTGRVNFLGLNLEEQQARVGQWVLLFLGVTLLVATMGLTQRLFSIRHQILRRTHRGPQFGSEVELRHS
Assay: cell-based or functional assay

B1: Peptid S548 (PLPEVPP) (peptide)
chain: PLPEVPP
- % inhibition of ACE, 0.39 µM inhibitor, row A: 9.98%
- % inhibition of ACE, 0.39 µM inhibitor, row B: 5.85%
- % inhibition of ACE, 0.39 µM inhibitor, row C: 4.63%
- % inhibition of ACE, 0.39 µM inhibitor, row D: -9.77%
- % inhibition of ACE, 0.78125 µM inhibitor, row A: 12.8%
- % inhibition of ACE, 0.78125 µM inhibitor, row B: 18.5%
- % inhibition of ACE, 0.78125 µM inhibitor, row C: 6.03%
- % inhibition of ACE, 0.78125 µM inhibitor, row D: 2.73%
- % inhibition of ACE, 1.5625 µM inhibitor, row A: 14.3%
- % inhibition of ACE, 1.5625 µM inhibitor, row B: 25.6%
- % inhibition of ACE, 1.5625 µM inhibitor, row C: 11.2%
- % inhibition of ACE, 1.5625 µM inhibitor, row D: 4.98%
- % inhibition of ACE, 3.125 µM inhibitor, row A: 20.4%
- % inhibition of ACE, 3.125 µM inhibitor, row B: 18.6%
- % inhibition of ACE, 3.125 µM inhibitor, row C: 16.3%
- % inhibition of ACE, 3.125 µM inhibitor, row D: 12.7%
- % inhibition of ACE, 6.25 µM inhibitor, row A: 30.6%
- % inhibition of ACE, 6.25 µM inhibitor, row B: 28.8%
- % inhibition of ACE, 6.25 µM inhibitor, row C: 25.2%
- % inhibition of ACE, 6.25 µM inhibitor, row D: 22.6%
- % inhibition of ACE, 12.5 µM inhibitor, row A: 36.8%
- % inhibition of ACE, 12.5 µM inhibitor, row B: 37.2%
- % inhibition of ACE, 12.5 µM inhibitor, row C: 35.7%
- % inhibition of ACE, 12.5 µM inhibitor, row D: 31.6%
- % inhibition of ACE, 25 µM inhibitor, row A: 55.7%
- % inhibition of ACE, 25 µM inhibitor, row B: 54.8%
- % inhibition of ACE, 25 µM inhibitor, row C: 56.7%
- % inhibition of ACE, 25 µM inhibitor, row D: 54.5%
- % inhibition of ACE, 50 µM inhibitor, row A: 69.5%
- % inhibition of ACE, 50 µM inhibitor, row B: 68.1%
- % inhibition of ACE, 50 µM inhibitor, row C: 64.2%
- % inhibition of ACE, 50 µM inhibitor, row D: 62.3%
- % inhibition of ACE, 100 µM inhibitor, row A: 81.8%
- % inhibition of ACE, 100 µM inhibitor, row B: 80.4%
- % inhibition of ACE, 100 µM inhibitor, row C: 78.9%
- % inhibition of ACE, 100 µM inhibitor, row D: 77.8%
- % inhibition of ACE, 200 µM inhibitor, row A: 89.3%
- % inhibition of ACE, 200 µM inhibitor, row B: 88.5%
- % inhibition of ACE, 200 µM inhibitor, row C: 88.4%
- % inhibition of ACE, 200 µM inhibitor, row D: 87.9%
- fluorescence (ACE activity), 0.39 µM inhibitor, row A: 813000
- fluorescence (ACE activity), 0.39 µM inhibitor, row B: 850000
- fluorescence (ACE activity), 0.39 µM inhibitor, row C: 861000
- fluorescence (ACE activity), 0.39 µM inhibitor, row D: 990000
- fluorescence (ACE activity), 0.78125 µM inhibitor, row A: 788000
- fluorescence (ACE activity), 0.78125 µM inhibitor, row B: 737000
- fluorescence (ACE activity), 0.78125 µM inhibitor, row C: 848000
- fluorescence (ACE activity), 0.78125 µM inhibitor, row D: 878000
- fluorescence (ACE activity), 1.5625 µM inhibitor, row A: 774000
- fluorescence (ACE activity), 1.5625 µM inhibitor, row B: 673000
- fluorescence (ACE activity), 1.5625 µM inhibitor, row C: 803000
- fluorescence (ACE activity), 1.5625 µM inhibitor, row D: 858000
- fluorescence (ACE activity), 3.125 µM inhibitor, row A: 720000
- fluorescence (ACE activity), 3.125 µM inhibitor, row B: 736000
- fluorescence (ACE activity), 3.125 µM inhibitor, row C: 756000
- fluorescence (ACE activity), 3.125 µM inhibitor, row D: 789000
- fluorescence (ACE activity), 6.25 µM inhibitor, row A: 628000
- fluorescence (ACE activity), 6.25 µM inhibitor, row B: 644000
- fluorescence (ACE activity), 6.25 µM inhibitor, row C: 676000
- fluorescence (ACE activity), 6.25 µM inhibitor, row D: 699000
- fluorescence (ACE activity), 12.5 µM inhibitor, row A: 573000
- fluorescence (ACE activity), 12.5 µM inhibitor, row B: 668000
- fluorescence (ACE activity), 12.5 µM inhibitor, row C: 583000
- fluorescence (ACE activity), 12.5 µM inhibitor, row D: 619000
- fluorescence (ACE activity), 25 µM inhibitor, row A: 402000
- fluorescence (ACE activity), 25 µM inhibitor, row B: 411000
- fluorescence (ACE activity), 25 µM inhibitor, row C: 394000
- fluorescence (ACE activity), 25 µM inhibitor, row D: 413000
- fluorescence (ACE activity), 50 µM inhibitor, row A: 278000
- fluorescence (ACE activity), 50 µM inhibitor, row B: 292000
- fluorescence (ACE activity), 50 µM inhibitor, row C: 326000
- fluorescence (ACE activity), 50 µM inhibitor, row D: 343000
- fluorescence (ACE activity), 100 µM inhibitor, row A: 168000
- fluorescence (ACE activity), 100 µM inhibitor, row B: 181000
- fluorescence (ACE activity), 100 µM inhibitor, row C: 194000
- fluorescence (ACE activity), 100 µM inhibitor, row D: 204000
- fluorescence (ACE activity), 200 µM inhibitor, row A: 101000
- fluorescence (ACE activity), 200 µM inhibitor, row B: 108000
- fluorescence (ACE activity), 200 µM inhibitor, row C: 109000
- fluorescence (ACE activity), 200 µM inhibitor, row D: 114000
